Laboratory results from paper PMC6954210.

What was measured:
[1] = IP, p517 Western blot, IBMX/Fsk stimulation; conditions: glycan gained; control: no OGT overexpression
[2] = IP, p-Ser Western blot, IBMX/Fsk-treated HeLa; conditions: glycan gained; control: no OGT overexpression
[3] = IP of endogenous PLIN1, p517 Western blot; conditions: glycan gained; control: WT mice
[4] = Western blot of PLIN1 in iWAT; conditions: glycan lost; control: WT mice
[5] = p492/p517 immunofluorescence, IBMX/Fsk-treated primary eWAT adipocytes; conditions: glycan lost; control: WT adipocytes
[6] = p517 Western blot, fat of 6 h fasted mice; conditions: glycan lost; control: WT mice

B1: perilipin 1 (PLIN1): OGT overexpression (protein)
parent chain: MSMNKGPTLLDGDLPEQENVLQRVLQLPVVSGTCECFQKTYNSTKEAHPLVASVCNAYEKGVQGASNLAAWSMEPVVRRLSTQFTAANELACRGLDHLEEKIPALQYPPEKIASELKGTISTRLRSARNSISVPIASTSDKVLGATLAGCELALGMAKETAEYAANTRVGRLASGGADLALGSIEKVVEFLLPPDKESAPSSGRQRTQKAPKAKPSLVRRVSTLANTLSRHTMQTTAWALKQGHSLAMWIPGVAPLSSLAQWGASAAMQVVSRRQSEVRVPWLHNLAASQDESHDDQTDTEGEETDDEEEEEESEAEENVLREVTALPNPRGLLGGVVHTVQNTLRNTISAVTWAPAAVLGTVGRILHLTPAQAVSSTKGRAMSLSDALKGVTDNVVDTVVHYVPLPRLSLMEPESEFRDIDNPSAEAERKGSGARPASPESTPRPGQPRGSLRSVRGLSAPSCPGLDDKTEASARPGFLAMPREKPARRVSDSFFRPSVMEPILGRAQYSQLRKKS
[1]
  other: PLIN1 phosphorylation: abolishes
[2]
  other: PLIN1 phosphorylation: decreases

B2: perilipin 1 (PLIN1): OGT AKI (adipose rOGT knockin) (protein)
parent chain: MSMNKGPTLLDGDLPEQENVLQRVLQLPVVSGTCECFQKTYNSTKEAHPLVASVCNAYEKGVQGASNLAAWSMEPVVRRLSTQFTAANELACRGLDHLEEKIPALQYPPEKIASELKGTISTRLRSARNSISVPIASTSDKVLGATLAGCELALGMAKETAEYAANTRVGRLASGGADLALGSIEKVVEFLLPPDKESAPSSGRQRTQKAPKAKPSLVRRVSTLANTLSRHTMQTTAWALKQGHSLAMWIPGVAPLSSLAQWGASAAMQVVSRRQSEVRVPWLHNLAASQDESHDDQTDTEGEETDDEEEEEESEAEENVLREVTALPNPRGLLGGVVHTVQNTLRNTISAVTWAPAAVLGTVGRILHLTPAQAVSSTKGRAMSLSDALKGVTDNVVDTVVHYVPLPRLSLMEPESEFRDIDNPSAEAERKGSGARPASPESTPRPGQPRGSLRSVRGLSAPSCPGLDDKTEASARPGFLAMPREKPARRVSDSFFRPSVMEPILGRAQYSQLRKKS
[3]
  other: PLIN1 phosphorylation: decreases

B3: perilipin 1 (PLIN1): OGT AKO (protein)
parent chain: MSMNKGPTLLDGDLPEQENVLQRVLQLPVVSGTCECFQKTYNSTKEAHPLVASVCNAYEKGVQGASNLAAWSMEPVVRRLSTQFTAANELACRGLDHLEEKIPALQYPPEKIASELKGTISTRLRSARNSISVPIASTSDKVLGATLAGCELALGMAKETAEYAANTRVGRLASGGADLALGSIEKVVEFLLPPDKESAPSSGRQRTQKAPKAKPSLVRRVSTLANTLSRHTMQTTAWALKQGHSLAMWIPGVAPLSSLAQWGASAAMQVVSRRQSEVRVPWLHNLAASQDESHDDQTDTEGEETDDEEEEEESEAEENVLREVTALPNPRGLLGGVVHTVQNTLRNTISAVTWAPAAVLGTVGRILHLTPAQAVSSTKGRAMSLSDALKGVTDNVVDTVVHYVPLPRLSLMEPESEFRDIDNPSAEAERKGSGARPASPESTPRPGQPRGSLRSVRGLSAPSCPGLDDKTEASARPGFLAMPREKPARRVSDSFFRPSVMEPILGRAQYSQLRKKS
[4]
  expression_or_secretion: no change

B4: perilipin 1 (PLIN1): OGT knockout (protein)
parent chain: MSMNKGPTLLDGDLPEQENVLQRVLQLPVVSGTCECFQKTYNSTKEAHPLVASVCNAYEKGVQGASNLAAWSMEPVVRRLSTQFTAANELACRGLDHLEEKIPALQYPPEKIASELKGTISTRLRSARNSISVPIASTSDKVLGATLAGCELALGMAKETAEYAANTRVGRLASGGADLALGSIEKVVEFLLPPDKESAPSSGRQRTQKAPKAKPSLVRRVSTLANTLSRHTMQTTAWALKQGHSLAMWIPGVAPLSSLAQWGASAAMQVVSRRQSEVRVPWLHNLAASQDESHDDQTDTEGEETDDEEEEEESEAEENVLREVTALPNPRGLLGGVVHTVQNTLRNTISAVTWAPAAVLGTVGRILHLTPAQAVSSTKGRAMSLSDALKGVTDNVVDTVVHYVPLPRLSLMEPESEFRDIDNPSAEAERKGSGARPASPESTPRPGQPRGSLRSVRGLSAPSCPGLDDKTEASARPGFLAMPREKPARRVSDSFFRPSVMEPILGRAQYSQLRKKS
[5]
  other: PLIN1 phosphorylation: increases

B5: perilipin 1 (PLIN1): OGT AKO (eWAT) (protein)
parent chain: MSMNKGPTLLDGDLPEQENVLQRVLQLPVVSGTCECFQKTYNSTKEAHPLVASVCNAYEKGVQGASNLAAWSMEPVVRRLSTQFTAANELACRGLDHLEEKIPALQYPPEKIASELKGTISTRLRSARNSISVPIASTSDKVLGATLAGCELALGMAKETAEYAANTRVGRLASGGADLALGSIEKVVEFLLPPDKESAPSSGRQRTQKAPKAKPSLVRRVSTLANTLSRHTMQTTAWALKQGHSLAMWIPGVAPLSSLAQWGASAAMQVVSRRQSEVRVPWLHNLAASQDESHDDQTDTEGEETDDEEEEEESEAEENVLREVTALPNPRGLLGGVVHTVQNTLRNTISAVTWAPAAVLGTVGRILHLTPAQAVSSTKGRAMSLSDALKGVTDNVVDTVVHYVPLPRLSLMEPESEFRDIDNPSAEAERKGSGARPASPESTPRPGQPRGSLRSVRGLSAPSCPGLDDKTEASARPGFLAMPREKPARRVSDSFFRPSVMEPILGRAQYSQLRKKS
[6]
  other: PLIN1 phosphorylation: increases

B6: perilipin 1 (PLIN1): OGT AKO (iWAT) (protein)
parent chain: MSMNKGPTLLDGDLPEQENVLQRVLQLPVVSGTCECFQKTYNSTKEAHPLVASVCNAYEKGVQGASNLAAWSMEPVVRRLSTQFTAANELACRGLDHLEEKIPALQYPPEKIASELKGTISTRLRSARNSISVPIASTSDKVLGATLAGCELALGMAKETAEYAANTRVGRLASGGADLALGSIEKVVEFLLPPDKESAPSSGRQRTQKAPKAKPSLVRRVSTLANTLSRHTMQTTAWALKQGHSLAMWIPGVAPLSSLAQWGASAAMQVVSRRQSEVRVPWLHNLAASQDESHDDQTDTEGEETDDEEEEEESEAEENVLREVTALPNPRGLLGGVVHTVQNTLRNTISAVTWAPAAVLGTVGRILHLTPAQAVSSTKGRAMSLSDALKGVTDNVVDTVVHYVPLPRLSLMEPESEFRDIDNPSAEAERKGSGARPASPESTPRPGQPRGSLRSVRGLSAPSCPGLDDKTEASARPGFLAMPREKPARRVSDSFFRPSVMEPILGRAQYSQLRKKS
[6]
  other: PLIN1 phosphorylation: no change
